Assay [1] concerns the target T1, Snu17p (residues 1-113) (S. cerevisiae, UniProt P40565 1-113).
T1 construct: 15N- or 15N/13C-labelled for NMR; also called Snu17p RRM with N-terminal unstructured extension; source: E. coli BL21(DE3) pLysS, purified (Ni-NTA, TEV cleavage, second Ni-NTA, SEC Superdex 75); not shown: His6, N-terminal, cleaved; GST, N-terminal, cleaved
T1 sequence (looked up): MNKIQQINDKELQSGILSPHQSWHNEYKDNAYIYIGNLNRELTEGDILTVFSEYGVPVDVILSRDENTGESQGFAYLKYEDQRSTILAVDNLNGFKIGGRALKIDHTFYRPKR
Put plainly: NMR titration; 1H,15N correlation (HSQC) spectra of 15N-labelled Snu17p (residues 1-113) on addition of Bud13p peptides; 298 K; 20 mM sodium phosphate pH 6.3, 25 mM NaCl, 2 mM DTT or TCEP. To be noted: both partners purified.

For assay [2], the target named is T1, Snu17p (residues 1-113). Put plainly: ITC; VP-ITC, 25 °C, NMR buffer (20 mM sodium phosphate pH 6.3, 25 mM NaCl, 2 mM DTT or TCEP); Snu17p (residues 1-113) 30-70 uM in the cell, Bud13p ligands 0.6-1.1 mM in the syringe; one- or two-step binding models. The following applies: both partners purified.

The record followed here is PMC4192513, “A Novel Protein-Protein Interaction in the RES (REtention and Splicing) Complex*” (The Journal of Biological Chemistry, 2014).

B1: Bud13p (residues 201-266) (domain or fragment)
chain: not shown
notes: also called 66-mer Bud13p peptide; very long Bud13p peptide; source: E. coli BL21(DE3) pLysS, purified (Ni-NTA, TEV cleavage, second Ni-NTA, SEC Superdex 75); not shown: His6, N-terminal, cleaved; GST, N-terminal, cleaved
On to B1, for which, in the assay with Snu17p (residues 1-113) [1], the binding result is given as “binds”.

B2: Bud13p peptide (residues 221-242) (peptide, UniProt P46947 221-242, looked up)
peptide: ENRFAIMPGSRWDGVHRSNGFE
notes: Bud13p, S. cerevisiae, residues 221-242; also called 22-mer Bud13p peptide; shorter Bud13p peptide; source: synthetic peptide, bought: Peptide Specialty Laboratories (Heidelberg), dialyzed
For B2, the “fold weaker dissociation constant than the longer Bud13p ligands” value with Snu17p (residues 1-113) [2] amounted to 50 fold.
